Source: US20260284244 (published 2026)

T1: La/SSB N-terminal domain (La-NTD) (human, UniProt P05455)
T1 chain: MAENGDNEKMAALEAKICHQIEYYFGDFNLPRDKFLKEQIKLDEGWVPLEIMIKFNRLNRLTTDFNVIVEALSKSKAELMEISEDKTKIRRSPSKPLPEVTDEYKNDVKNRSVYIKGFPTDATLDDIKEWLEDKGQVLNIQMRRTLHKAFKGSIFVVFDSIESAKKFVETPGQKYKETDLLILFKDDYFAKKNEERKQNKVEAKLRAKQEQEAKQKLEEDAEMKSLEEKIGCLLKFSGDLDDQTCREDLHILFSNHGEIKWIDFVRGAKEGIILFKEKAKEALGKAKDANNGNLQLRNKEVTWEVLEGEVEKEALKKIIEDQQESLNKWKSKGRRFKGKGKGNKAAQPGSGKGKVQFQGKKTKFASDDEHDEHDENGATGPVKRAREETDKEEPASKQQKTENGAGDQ


Target: T1, La/SSB N-terminal domain (La-NTD)
Test: SPR

Kd | Binder
13.6 nM | VH3/VK6_K322A (antibody, V domains shown) VH: EVQLVQSGAEVKKPGASVKVSCKASGYAFTHYYIYWIRQAPGQGLEWMGGVNPSSGGTHYAEKFQGRVTLTVDTSSSTAYMELSSLRSEDTAVYYCTRSEYDYGLGFAYWGQGTLVTVSS VL: DIVMTQSPLSLPVTPGEPASISCRSSQSLLSSRTPKNYLAWYQQKPGQSPQLLIYWASTRKSGVPDRFSGSGSGTDFTLKISRVEAEDVGVYYCKQSYNLLTFGQGTKLEIK
8.27 nM | VH3/VK6_K322A_RadMab (antibody, V domains shown) VH: EVQLVQSGAEVKKPGASVKVSCKASGYAFTHYYIYWIRQAPGQGLEWMGGVNPSSGGTHYAEKFQGRVTLTVDTSSSTAYMELSSLRSEDTAVYYCTRSEYDYGLGFAYWGQGTLVTVSS VL: DIVMTQSPLSLPVTPGEPASISCRSSQSLLSSRTPKNYLAWYQQKPGQSPQLLIYWASTRKSGVPDRFSGSGSGTDFTLKISRVEAEDVGVYYCKQSYNLLTFGQGTKLEIKR
8.72 nM | VH6/VK8_K322A_RadMab (antibody, V domains shown) VH: EVQLVQSGAEVKKPGASVKVSCKASGYAFTHYYIYWIKQAPGQGLEWIGGVNPSNGGTHFNEKFKSRVTITVDKSASTAYMELSSLRSEDTAVYYCTRSEYDYGLGFAYWGQGTLVTVSS VL: EIVMTQSPDSLAVSLGERATINCKSSQSLLNSRTPKNYLAWYQQKPGQPPKLLIYWASTRESGVPDRFTGSGSGTDFTLTISSLQAEDVAVYYCKQSYNLLTFGQGTKLEIKR
14.5 nM | VH6/VK8_K322A (antibody, V domains shown) VH: EVQLVQSGAEVKKPGASVKVSCKASGYAFTHYYIYWIKQAPGQGLEWIGGVNPSNGGTHFNEKFKSRVTITVDKSASTAYMELSSLRSEDTAVYYCTRSEYDYGLGFAYWGQGTLVTVSS VL: EIVMTQSPDSLAVSLGERATINCKSSQSLLNSRTPKNYLAWYQQKPGQPPKLLIYWASTRESGVPDRFTGSGSGTDFTLTISSLQAEDVAVYYCKQSYNLLTFGQGTKLEIK
18.2 nM | chAPOMAB_VH0/VK0_K322A (antibody, V domains shown) VH: EVQLQQPGAELVKPGASVKLSCKASGYAFTHYYIYWIKQRPGQGLEWIGGVNPSNGGTHFNEKFKSKATLTVDKSSSTAYMQLSSLTSEDSAVYYCTRSEYDYGLGFAYWGQGTLLTVSS VL: EIVMSQSPSSLAVSAGEKVTMSCKSSQSLLNSRTPKNYLAWYQQKPGQSPKLLIYWASTRKSGVPDRFTGSGSGTDFTLTISSVQAEDLAVYYCKQSYNLLTFGAGTKLEL
